Laboratory results: publication PMC2324120, “Disease mechanism for retinitis pigmentosa (RP11) caused by missense mutations in the splicing factor gene PRPF31” (Molecular Vision, 2008)

T1: His-tagged PRPF31, wild type (human, UniProt Q8WWY3 1-499)
T1 construct: also called WT PRPF31; PRPF31-His; not shown: His tag, C-terminal, kept
T1 sequence (looked up): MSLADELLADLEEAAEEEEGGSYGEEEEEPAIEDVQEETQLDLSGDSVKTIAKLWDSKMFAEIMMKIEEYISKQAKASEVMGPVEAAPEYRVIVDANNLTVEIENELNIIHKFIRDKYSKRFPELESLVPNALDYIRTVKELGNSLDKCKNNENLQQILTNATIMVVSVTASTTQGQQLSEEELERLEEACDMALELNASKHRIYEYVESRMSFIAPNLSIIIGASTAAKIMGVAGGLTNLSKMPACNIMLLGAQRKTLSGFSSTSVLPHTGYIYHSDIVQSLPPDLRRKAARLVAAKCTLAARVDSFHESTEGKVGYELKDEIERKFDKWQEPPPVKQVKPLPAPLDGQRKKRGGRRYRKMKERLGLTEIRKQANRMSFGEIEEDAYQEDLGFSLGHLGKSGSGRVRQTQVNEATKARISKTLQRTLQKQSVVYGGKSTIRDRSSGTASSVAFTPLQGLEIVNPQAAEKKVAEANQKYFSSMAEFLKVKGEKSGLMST

T2: GST-tagged PRPF6 C-terminal HAT-containing domain (PRPF6C, residues 607-941) (human, UniProt O94906 607-941)
T2 construct: PRPF6 (U5-102 kD protein), human, residues 607-941, HAT domains 6-9 according to Pfam analysis; the forward primer printed for PRPF6C is nearly the same as that of PRPF6M; Cloned in pGEX6P-1 via EcoRI and SalI; also called GST-PRPF6C; PRP6F-C; not shown: GST, N-terminal, kept
T2 sequence (looked up): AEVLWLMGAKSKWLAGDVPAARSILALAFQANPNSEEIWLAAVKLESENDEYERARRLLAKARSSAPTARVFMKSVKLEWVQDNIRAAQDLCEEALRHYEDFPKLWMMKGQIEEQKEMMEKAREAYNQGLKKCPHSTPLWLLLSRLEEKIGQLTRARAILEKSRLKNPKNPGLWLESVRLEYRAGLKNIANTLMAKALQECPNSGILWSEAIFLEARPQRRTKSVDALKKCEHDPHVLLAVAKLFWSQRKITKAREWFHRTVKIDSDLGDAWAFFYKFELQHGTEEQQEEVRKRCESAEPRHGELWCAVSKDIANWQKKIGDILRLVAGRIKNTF

B1: GST-tagged PRPF6 middle HAT-containing domain (PRPF6M, residues 307-607) (domain or fragment, human, UniProt O94906 307-607, looked up)
chain: HHPPAWIASARLEEVTGKLQVARNLIMKGTEMCPKSEDVWLEAARLQPGDTAKAVVAQAVRHLPQSVRIYIRAAELETDIRAKKRVLRKALEHVPNSVRLWKAAVELEEPEDARIMLSRAVECCPTSVELWLALARLETYENARKVLNKARENIPTDRHIWITAAKLEEANGNTQMVEKIIDRAITSLRANGVEINREQWIQDAEECDRAGSVATCQAVMRAVIGIGIEEEDRKHTWMEDADSCVAHNALECARAIYAYALQVFPSKKSVWLRAAYFEKNHGTRESLEALLQRAVAHCPKA
notes: PRPF6 (U5-102 kD protein), human, residues 307-607, HAT domains 1-5 according to Pfam analysis; Cloned in pGEX6P-1 via EcoRI and SalI; also called GST-PRPF6M; PRP6F-M; not shown: GST, N-terminal, kept
B2: His-tagged PRPF31 A216P mutant (natural protein, human, UniProt Q8WWY3 1-499, looked up)
chain: MSLADELLADLEEAAEEEEGGSYGEEEEEPAIEDVQEETQLDLSGDSVKTIAKLWDSKMFAEIMMKIEEYISKQAKASEVMGPVEAAPEYRVIVDANNLTVEIENELNIIHKFIRDKYSKRFPELESLVPNALDYIRTVKELGNSLDKCKNNENLQQILTNATIMVVSVTASTTQGQQLSEEELERLEEACDMALELNASKHRIYEYVESRMSFIPPNLSIIIGASTAAKIMGVAGGLTNLSKMPACNIMLLGAQRKTLSGFSSTSVLPHTGYIYHSDIVQSLPPDLRRKAARLVAAKCTLAARVDSFHESTEGKVGYELKDEIERKFDKWQEPPPVKQVKPLPAPLDGQRKKRGGRRYRKMKERLGLTEIRKQANRMSFGEIEEDAYQEDLGFSLGHLGKSGSGRVRQTQVNEATKARISKTLQRTLQKQSVVYGGKSTIRDRSSGTASSVAFTPLQGLEIVNPQAAEKKVAEANQKYFSSMAEFLKVKGEKSGLMST
notes: PRPF31 splicing factor, human, with the RP11 patient missense mutation A216P, cDNA in pTriEx-1; A216P is a disease mutation found in RP11 patients; also called mutant PRPF31; not shown: His tag, C-terminal, kept

Legend:
Experiment in all cases: pull-down; GST-tagged PRPF6 domain from 100 µl E. coli extract bound to glutathione sepharose beads in PBS, excess removed and beads washed; 0.1 nmol purified His-tagged PRPF31 added in 200 µl, 30 min at 4 °C; three washes with chilled PBS, eluted with reduced glutathione; Western blots with Penta-His and anti-GST antibodies; bands quantified and normalised to WT, four determinations
Conditions in all cases: both partners purified
[1] = target: T1, His-tagged PRPF31, wild type
[2] = target: B1
[3] = target: T2, GST-tagged PRPF6 C-terminal …

Row | Binder | binding result [1] | ratio of mutant:WT PRPF31 band in the pull-down [2] | ratio of mutant:WT PRPF31 band in the pull-down [3]
1 | B1 | binds | – | –
2 | B2 | – | 4.2 fold (mutant:WT) | 2.1 fold (mutant:WT)
